Reference: paper PMC10786891, “Massively parallel profiling of RNA-targeting CRISPR-Cas13d”

T1: EsCas13d, nuclease-dead (Eubacterium siraeum, UniProt B0MS50, R295A;H300A;R849A;H854A)
T1 sequence: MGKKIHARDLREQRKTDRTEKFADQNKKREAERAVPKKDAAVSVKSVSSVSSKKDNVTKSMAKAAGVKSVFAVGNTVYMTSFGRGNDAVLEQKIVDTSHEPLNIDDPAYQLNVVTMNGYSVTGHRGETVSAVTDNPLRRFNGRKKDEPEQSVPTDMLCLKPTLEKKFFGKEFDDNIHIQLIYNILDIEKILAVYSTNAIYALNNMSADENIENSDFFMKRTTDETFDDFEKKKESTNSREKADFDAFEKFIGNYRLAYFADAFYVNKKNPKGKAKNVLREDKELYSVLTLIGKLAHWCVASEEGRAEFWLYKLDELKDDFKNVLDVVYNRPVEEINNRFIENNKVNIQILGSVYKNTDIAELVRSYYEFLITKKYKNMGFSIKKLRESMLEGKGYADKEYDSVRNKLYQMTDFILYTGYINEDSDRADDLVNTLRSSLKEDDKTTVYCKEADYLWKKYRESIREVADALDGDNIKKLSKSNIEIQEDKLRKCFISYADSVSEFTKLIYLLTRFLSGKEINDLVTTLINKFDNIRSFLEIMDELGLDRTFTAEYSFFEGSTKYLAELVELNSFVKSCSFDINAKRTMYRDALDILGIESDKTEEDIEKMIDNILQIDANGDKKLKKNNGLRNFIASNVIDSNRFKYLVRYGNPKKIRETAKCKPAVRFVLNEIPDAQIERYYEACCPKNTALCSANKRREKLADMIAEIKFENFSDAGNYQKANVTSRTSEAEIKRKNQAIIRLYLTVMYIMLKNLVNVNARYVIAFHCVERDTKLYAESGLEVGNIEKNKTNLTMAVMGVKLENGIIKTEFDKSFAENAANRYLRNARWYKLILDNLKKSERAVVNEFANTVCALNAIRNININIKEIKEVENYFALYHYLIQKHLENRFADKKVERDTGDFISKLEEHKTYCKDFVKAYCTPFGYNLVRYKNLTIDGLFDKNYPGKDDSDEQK

B1: target 1 C6G,G15C (mixed)
RNA 1: CACCCGUGCAAAAAUGCAGGGGUCUAAAACUGAGCGGAUAACCUCUCUAUGG
RNA 2: GGGAAUGGAUCCACAUCUACGAAUUCGUACCAUAGACAGGUUAUCGGCUCACCGAGAUCGGAAGAGCACACGU
B2: target 1 C6U,A14U (mixed)
RNA 1: CACCCGUGCAAAAAUGCAGGGGUCUAAAACUGAGCGGAUAACCUCUCUAUGG
RNA 2: GGGAAUGGAUCCACAUCUACGAAUUCGUACCAUAGAGUGGUUAUCUGCUCACCGAGAUCGGAAGAGCACACGU
B3: target 1 G5U,C6G (mixed)
RNA 1: CACCCGUGCAAAAAUGCAGGGGUCUAAAACUGAGCGGAUAACCUCUCUAUGG
RNA 2: GGGAAUGGAUCCACAUCUACGAAUUCGUACCAUAGAGAGGUUAUCGUCUCACCGAGAUCGGAAGAGCACACGU
B4: target 2 MT 5'PFS GCC 3'PFS ACA (mixed)
RNA 1: CACCCGUGCAAAAUUGCAGGGGUCUAAAACCUUCUCCAAAUUGUUUCAUCCU
RNA 2: GGGAAUGGAUCCACAUCUACGAAUUCGCCAGGAUGAAACAAUUUGGAGAAGACAAGAUCGGAAGAGCACACGU
B5: target 2 MT 5'PFS GUC 3'PFS AGU (mixed)
RNA 1: CACCCGUGCAAAAUUGCAGGGGUCUAAAACCUUCUCCAAAUUGUUUCAUCCU
RNA 2: GGGAAUGGAUCCACAUCUACGAAUUCGUCAGGAUGAAACAAUUUGGAGAAGAGUAGAUCGGAAGAGCACACGU
B6: target 2 MT 5'PFS UAC 3'PFS CGG (mixed)
RNA 1: CACCCGUGCAAAAUUGCAGGGGUCUAAAACCUUCUCCAAAUUGUUUCAUCCU
RNA 2: GGGAAUGGAUCCACAUCUACGAAUUCUACAGGAUGAAACAAUUUGGAGAAGCGGAGAUCGGAAGAGCACACGU
B7: target 2 MT 5'PFS CUG 3'PFS UCA (mixed)
RNA 1: CACCCGUGCAAAAUUGCAGGGGUCUAAAACCUUCUCCAAAUUGUUUCAUCCU
RNA 2: GGGAAUGGAUCCACAUCUACGAAUUCCUGAGGAUGAAACAAUUUGGAGAAGUCAAGAUCGGAAGAGCACACGU
B8: target 2 MT 5'PFS GUC 3'PFS CGU (mixed)
RNA 1: CACCCGUGCAAAAUUGCAGGGGUCUAAAACCUUCUCCAAAUUGUUUCAUCCU
RNA 2: GGGAAUGGAUCCACAUCUACGAAUUCGUCAGGAUGAAACAAUUUGGAGAAGCGUAGAUCGGAAGAGCACACGU
B9: target 2 MT 5'PFS AUA 3'PFS CAG (mixed)
RNA 1: CACCCGUGCAAAAUUGCAGGGGUCUAAAACCUUCUCCAAAUUGUUUCAUCCU
RNA 2: GGGAAUGGAUCCACAUCUACGAAUUCAUAAGGAUGAAACAAUUUGGAGAAGCAGAGAUCGGAAGAGCACACGU
B10: target 2 MT 5'PFS UAA 3'PFS AGA (mixed)
RNA 1: CACCCGUGCAAAAUUGCAGGGGUCUAAAACCUUCUCCAAAUUGUUUCAUCCU
RNA 2: GGGAAUGGAUCCACAUCUACGAAUUCUAAAGGAUGAAACAAUUUGGAGAAGAGAAGAUCGGAAGAGCACACGU
B11: target 2 MT 5'PFS AAU 3'PFS ACU (mixed)
RNA 1: CACCCGUGCAAAAUUGCAGGGGUCUAAAACCUUCUCCAAAUUGUUUCAUCCU
RNA 2: GGGAAUGGAUCCACAUCUACGAAUUCAAUAGGAUGAAACAAUUUGGAGAAGACUAGAUCGGAAGAGCACACGU
B12: target 2 MT 5'PFS CGA 3'PFS AAC (mixed)
RNA 1: CACCCGUGCAAAAUUGCAGGGGUCUAAAACCUUCUCCAAAUUGUUUCAUCCU
RNA 2: GGGAAUGGAUCCACAUCUACGAAUUCCGAAGGAUGAAACAAUUUGGAGAAGAACAGAUCGGAAGAGCACACGU
B13: target 2 MT 5'PFS GUC 3'PFS CGA (mixed)
RNA 1: CACCCGUGCAAAAUUGCAGGGGUCUAAAACCUUCUCCAAAUUGUUUCAUCCU
RNA 2: GGGAAUGGAUCCACAUCUACGAAUUCGUCAGGAUGAAACAAUUUGGAGAAGCGAAGAUCGGAAGAGCACACGU
B14: target 2 MT 5'PFS CGA 3'PFS AAA (mixed)
RNA 1: CACCCGUGCAAAAUUGCAGGGGUCUAAAACCUUCUCCAAAUUGUUUCAUCCU
RNA 2: GGGAAUGGAUCCACAUCUACGAAUUCCGAAGGAUGAAACAAUUUGGAGAAGAAAAGAUCGGAAGAGCACACGU
B15: target 2 MT 5'PFS AUA 3'PFS CAC (mixed)
RNA 1: CACCCGUGCAAAAUUGCAGGGGUCUAAAACCUUCUCCAAAUUGUUUCAUCCU
RNA 2: GGGAAUGGAUCCACAUCUACGAAUUCAUAAGGAUGAAACAAUUUGGAGAAGCACAGAUCGGAAGAGCACACGU
B16: target 2 MT 5'PFS CUG 3'PFS UCU (mixed)
RNA 1: CACCCGUGCAAAAUUGCAGGGGUCUAAAACCUUCUCCAAAUUGUUUCAUCCU
RNA 2: GGGAAUGGAUCCACAUCUACGAAUUCCUGAGGAUGAAACAAUUUGGAGAAGUCUAGAUCGGAAGAGCACACGU
B17: target 2 MT 5'PFS GUC 3'PFS CGG (mixed)
RNA 1: CACCCGUGCAAAAUUGCAGGGGUCUAAAACCUUCUCCAAAUUGUUUCAUCCU
RNA 2: GGGAAUGGAUCCACAUCUACGAAUUCGUCAGGAUGAAACAAUUUGGAGAAGCGGAGAUCGGAAGAGCACACGU
B18: target 2 MT 5'PFS GGU 3'PFS UGU (mixed)
RNA 1: CACCCGUGCAAAAUUGCAGGGGUCUAAAACCUUCUCCAAAUUGUUUCAUCCU
RNA 2: GGGAAUGGAUCCACAUCUACGAAUUCGGUAGGAUGAAACAAUUUGGAGAAGUGUAGAUCGGAAGAGCACACGU
B19: target 2 MT 5'PFS GCC 3'PFS ACG (mixed)
RNA 1: CACCCGUGCAAAAUUGCAGGGGUCUAAAACCUUCUCCAAAUUGUUUCAUCCU
RNA 2: GGGAAUGGAUCCACAUCUACGAAUUCGCCAGGAUGAAACAAUUUGGAGAAGACGAGAUCGGAAGAGCACACGU
B20: target 2 MT 5'PFS UAC 3'PFS CGA (mixed)
RNA 1: CACCCGUGCAAAAUUGCAGGGGUCUAAAACCUUCUCCAAAUUGUUUCAUCCU
RNA 2: GGGAAUGGAUCCACAUCUACGAAUUCUACAGGAUGAAACAAUUUGGAGAAGCGAAGAUCGGAAGAGCACACGU
B21: target 2 MT 5'PFS GUC 3'PFS CGC (mixed)
RNA 1: CACCCGUGCAAAAUUGCAGGGGUCUAAAACCUUCUCCAAAUUGUUUCAUCCU
RNA 2: GGGAAUGGAUCCACAUCUACGAAUUCGUCAGGAUGAAACAAUUUGGAGAAGCGCAGAUCGGAAGAGCACACGU
B22: target 2 MT 5'PFS CUG 3'PFS UCG (mixed)
RNA 1: CACCCGUGCAAAAUUGCAGGGGUCUAAAACCUUCUCCAAAUUGUUUCAUCCU
RNA 2: GGGAAUGGAUCCACAUCUACGAAUUCCUGAGGAUGAAACAAUUUGGAGAAGUCGAGAUCGGAAGAGCACACGU
B23: target 2 MT 5'PFS UAA 3'PFS AGG (mixed)
RNA 1: CACCCGUGCAAAAUUGCAGGGGUCUAAAACCUUCUCCAAAUUGUUUCAUCCU
RNA 2: GGGAAUGGAUCCACAUCUACGAAUUCUAAAGGAUGAAACAAUUUGGAGAAGAGGAGAUCGGAAGAGCACACGU
B24: target 2 MT 5'PFS GGU 3'PFS UGC (mixed)
RNA 1: CACCCGUGCAAAAUUGCAGGGGUCUAAAACCUUCUCCAAAUUGUUUCAUCCU
RNA 2: GGGAAUGGAUCCACAUCUACGAAUUCGGUAGGAUGAAACAAUUUGGAGAAGUGCAGAUCGGAAGAGCACACGU
B25: target 2 MT 5'PFS AUA 3'PFS CAA (mixed)
RNA 1: CACCCGUGCAAAAUUGCAGGGGUCUAAAACCUUCUCCAAAUUGUUUCAUCCU
RNA 2: GGGAAUGGAUCCACAUCUACGAAUUCAUAAGGAUGAAACAAUUUGGAGAAGCAAAGAUCGGAAGAGCACACGU
B26: target 2 MT 5'PFS UAC 3'PFS CGC (mixed)
RNA 1: CACCCGUGCAAAAUUGCAGGGGUCUAAAACCUUCUCCAAAUUGUUUCAUCCU
RNA 2: GGGAAUGGAUCCACAUCUACGAAUUCUACAGGAUGAAACAAUUUGGAGAAGCGCAGAUCGGAAGAGCACACGU
B27: target 2 MT 5'PFS CUG 3'PFS UCC (mixed)
RNA 1: CACCCGUGCAAAAUUGCAGGGGUCUAAAACCUUCUCCAAAUUGUUUCAUCCU
RNA 2: GGGAAUGGAUCCACAUCUACGAAUUCCUGAGGAUGAAACAAUUUGGAGAAGUCCAGAUCGGAAGAGCACACGU
B28: target 2 MT 5'PFS UAA 3'PFS AGC (mixed)
RNA 1: CACCCGUGCAAAAUUGCAGGGGUCUAAAACCUUCUCCAAAUUGUUUCAUCCU
RNA 2: GGGAAUGGAUCCACAUCUACGAAUUCUAAAGGAUGAAACAAUUUGGAGAAGAGCAGAUCGGAAGAGCACACGU

The binders below were run against T1, EsCas13d, nuclease-dead (assay: crRNA (strand 1, pre-loaded); Mg2+; 40 mM Tris-HCl pH 7.5, 150 mM NaCl, 6 mM MgCl2, 1 mM DTT, 0.1% Tween-20, 0.2 mg/ml BSA; 25 C; 10 min per concentration, then washed). Details: tags: His6-TwinStrep-SUMO cleaved; N-terminal SNAP kept (SNAP-Surface 488); label: 3' end held by stalled T7 RNA polymerase.
B1 showed a Kd of 47 ± 10 nM. B2 gave a Kd of 58 ± 20 nM. Binder B3 has a Kd of 9.5 ± 0.32 nM. B4 gave a Kd of 10.8 ± 1.1 nM. B5 gave a Kd of 16.5 ± 2.6 nM. In the case of B6, the Kd is reported as 3.6 ± 0.5 nM. Work on B7 yielded a Kd of 5 ± 0.6 nM. For B8, the Kd was 17.5 ± 2.8 nM. In the case of B9, the Kd is reported as 8.4 ± 2.6 nM. B10 was tested, and the Kd was 3.4 ± 0.6 nM. Work on B11 yielded a Kd of 6.2 ± 0.7 nM. B12 showed a Kd of 7.5 ± 1.1 nM. For B13, the Kd was 8.7 ± 0.7 nM. B14 showed a Kd of 13 ± 5 nM. For B15, the Kd was 5.4 ± 1.1 nM. With B16 the Kd was 6.3 ± 0.4 nM. In the case of B17, the Kd is reported as 18.3 ± 2.1 nM. B18 was tested, and the Kd was 33 ± 4 nM. With B19 the Kd was 12.2 ± 1.4 nM. Binder B20 has a Kd of 6 ± 1.9 nM. For B21, the Kd was 16.9 ± 1.3 nM. B22 gave a Kd of 3.1 ± 0.4 nM. B23 gave a Kd of 4.5 ± 0.6 nM. B24 gave a Kd of 23 ± 4 nM. With B25 the Kd was 4.6 ± 1.3 nM. Binder B26 has a Kd of 5.5 ± 0.8 nM. For B27, the Kd was 6.1 ± 0.5 nM. In the case of B28, the Kd is reported as 3.2 ± 0.4 nM.
